Literature values in publication PMC7094366.

Molecular target: SARS-CoV 3C-like proteinase (Severe acute respiratory syndrome coronavirus) (UniProt P0C6X7)

SARS-CoV 3C-like proteinase (from UniProt P0C6X7)
Kd: 100 µM
